Experimental data taken from patent US20250034266A1 (ZAI LAB SHANGHAI, published 2025).
Read-outs that look alike come from different tables or passages of the source.

B1: Hu149-4-mIgG2a (antibody, V domains shown)
VH: EVQLVESGGGLVQPGGSLKLSCAASGFTFNTYAMNWVRQASGKGLEWVGRIRSKSNFYATYYAASVKGRFTISRDDSKNTAYLQMNSLKTEDTAVYYCTRGRDYGSSYAMDYWGQGTLVTVSS
VL: DIVMTQSPLSLPVTPGEPASISCRSSKSLLHSNANTYLYWFLQKPGQSPQLLIYRMSNLASGVPDRFSGSGSGTDFTLKISRVEAEDVGVYYCMQHLEYPLTFGGGTKVELK
B2: Hu149-12G1 (antibody, human IgG1)
heavy: not shown
VL: DIVMTQSPLSLPVTPGEPASISCRSSKSLLHSNANTYLYWFLQKPGQSPQLLIYRMSNLASGVPDRFSGSGSGTDFTLKISRVEAEDVGVYYCMQHLEYPLTFGGGTKVELK
B3: Hu149-11G1 (antibody, human IgG1)
heavy: not shown
VL: DIVMTQSPLSLPVTPGEPASISCRSSKSLLHSNANTYLYWFLQKPGQSPQLLIYRMSNLASGVPDRFSGSGSGTDFTLKISRVEAEDVGVYYCMQHLEYPLTFGGGTKVELK
notes: also called Hu149-11G1 (wild type variant)
B4: Hu149-18 (antibody, human IgG1, V domains shown)
VH: EVQLVESGGGLVQPGGSLKLSCAASGFTFNTYAMNWVRQASGKGLEWVGRIRSKSNFYATAYAASVKGRFTISRDDSKNTAYLQMNSLKTEDTAVYYCTRGRDYGSSYAMDYWGQGTLVTVSS
VL: DIVMTQSPLSLPVTPGEPASISCRSSKSLLHSNANTYLYWFLQKPGQSPQLLIYRMSNLASGVPDRFSGSGSGTDFTLKISRVEAEDVGVYYCMQHLRYPLTFGGGTKVELK
notes: human IgG1
B5: Hu348-4 mIgG2a (antibody, V domains shown)
VH: EVQLVESGGGLVQPGGSLKLSCATSGFSFSNYRMHWLRQASGKGLEWVGVITVKSDNYGANYAASVKGRFTISRDDSKSSVYLQMNSLKTEDTAVYYCSSLGRVAYWGQGTLVTVSS
VL: DIQMTQSPSSVSASVGDRVTITCKASQNVDTNVVWYQQKPGQSPKALIYSASSRYSGVPSRFSGSGSGTDFTLTISSLQPEDFATYYCQQHNSFPLTFGQGTKLEIK

How the values were obtained:
human CCR8 [1] = biological target: T1, human CCR8 (human, UniProt P51685 1-355); assay: cell-based or functional assay
T1 sequence (P51685 whole entry): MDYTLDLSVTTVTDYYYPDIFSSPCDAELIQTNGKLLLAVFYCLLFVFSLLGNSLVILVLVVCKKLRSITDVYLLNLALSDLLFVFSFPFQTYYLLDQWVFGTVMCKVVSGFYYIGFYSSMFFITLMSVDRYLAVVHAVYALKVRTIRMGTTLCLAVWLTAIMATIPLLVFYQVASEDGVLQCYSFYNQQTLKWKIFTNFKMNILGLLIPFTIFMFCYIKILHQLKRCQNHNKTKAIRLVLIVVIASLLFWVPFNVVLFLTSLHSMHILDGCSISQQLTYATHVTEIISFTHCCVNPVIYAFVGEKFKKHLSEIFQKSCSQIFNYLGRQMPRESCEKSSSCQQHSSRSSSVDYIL

human CCR8 [2] = biological target: T2, human CCR8 (human, UniProt P51685 1-355); assay: cell-based or functional assay; remark: listed apart in the source
T2 sequence (P51685 whole entry): as above

human CCR8 [3] = biological target: T2, human CCR8; assay: cell-based or functional assay; remark: listed apart in the source
human CCR8 [4] = biological target: T2, human CCR8; assay: flow cytometry on TALL-1 cells (endogenous CCR8)
Experimental: Briefly, a total of 5×10⁴ cells for each well were seeded in 96-well plates and washed with FACS buffer (DPBS containing 1.5% FBS) for once. Antibodies were prepared with 3-fold serial dilution ranging from 100 nM to 0.00508 nM in FACS buffer. Cells were incubated with 50 μL of diluted antibodies at 4° C. for 40 minutes. After primary antibody incubation, cells were washed twice by FACS buffer. Then, cells were stained by Alexa Flu647-labeled anti-human IgG Fc secondary antibody (Jackson ImmunoResearch, #109606170) at 1:500 dilution in FACS buffer for 40 minutes at 4° C. After 2 times wash with FACS buffer, flow cytometry (BD FACS Celesta) was performed to measure the binding affinities of antibodies.

human CCR8 [5] = biological target: T2, human CCR8; assay: cell-based or functional assay; remark: listed apart in the source
human CCR8 [6] = biological target: T2, human CCR8; assay: cell-based or functional assay; remark: listed apart in the source
cynomolgus CCR8 = biological target: T3, cynomolgus CCR8 (cynomolgus, UniProt G7NYJ2 1-355); assay: FACS on HEK293-cynomolgus CCR8 cells
T3 construct: whole, on cells
T3 sequence (G7NYJ2 entry or part of it): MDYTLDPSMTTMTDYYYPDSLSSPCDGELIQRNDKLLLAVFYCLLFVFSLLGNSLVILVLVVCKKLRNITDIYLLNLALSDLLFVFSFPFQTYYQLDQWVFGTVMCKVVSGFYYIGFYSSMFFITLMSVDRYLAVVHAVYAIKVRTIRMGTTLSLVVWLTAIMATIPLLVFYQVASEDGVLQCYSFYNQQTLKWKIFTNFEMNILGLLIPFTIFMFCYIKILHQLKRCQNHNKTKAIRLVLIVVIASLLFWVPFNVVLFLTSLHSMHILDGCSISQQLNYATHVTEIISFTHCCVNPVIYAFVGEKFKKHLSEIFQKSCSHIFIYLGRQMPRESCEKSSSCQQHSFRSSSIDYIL

human CCR8 [7] = biological target: T1, human CCR8; assay: cell-based or functional assay; remark: listed apart in the source
human CCR8 [8] = biological target: T1, human CCR8; assay: FACS on CHO-K1-human CCR8 cells
human CCR8 [9] = biological target: T1, human CCR8; assay: FACS on HuT78 cells (endogenous human CCR8)
Experimental: HuT78 cells expressing endogenous human CCR8 were used for determining binding affinities of selected affinity matured anti-CCR8 antibodies. Briefly, a total of […] cells for each well were seeded in 96-well plates and washed with FACS buffer (DPBS containing […]) for once. […] Cells were incubated with 50 μL of diluted antibodies at 4° C. for 1 hour. After primary antibody incubation, cells were washed for 3 times by FACS buffer. Then, cells were stained by Alexa Fbu647 labeled anti-human IgG secondary antibody (Jackson ImmunoResearch, #109606170) at 1:600 dilution in FACS buffer for 0.5 hour at 4° C. After 3 times washed, flow cytometry (Sartourius, iQue3) was performed to measure the binding affinities of antibodies. […]

human CCR8 [10] = biological target: T1, human CCR8; assay: FACS, competition with CCL1 on CHO-K1-human CCR8 cells
human CCR8 [11] = biological target: T1, human CCR8; assay: cell-based or functional assay; remark: listed apart in the source

| Binder | EC50, ADCC with human PBMCs, target CHO-K1-human CCR8 cells (human CCR8 [2]) [nM] | Max specific lysis (%), ADCC with human PBMCs, target CHO-K1-human CCR8 cells (human CCR8 [2]) [%] | EC50, ADCC reporter, F variant CD16a/NFAT-Jurkat, target CHO-K1-human CCR8 cells (human CCR8 [3]) [nM] | EC50, ADCC reporter, F variant CD16a/NFAT-Jurkat, target HuT78 cells (human CCR8 [3]) [nM] | EC50, ADCC reporter, V variant CD16a/NFAT-Jurkat, target CHO-K1-human CCR8 cells (human CCR8 [3]) [nM] | EC50, ADCC reporter, V variant CD16a/NFAT-Jurkat, target HuT78 cells (human CCR8 [3]) [nM] | Max (RLU), ADCC reporter, F variant CD16a/NFAT-Jurkat, target CHO-K1-human CCR8 cells (human CCR8 [3]) [RLU] | Max (RLU), ADCC reporter, F variant CD16a/NFAT-Jurkat, target HuT78 cells (human CCR8 [3]) [RLU] | Max (RLU), ADCC reporter, V variant CD16a/NFAT-Jurkat, target CHO-K1-human CCR8 cells (human CCR8 [3]) [RLU] | Max (RLU), ADCC reporter, V variant CD16a/NFAT-Jurkat, target HuT78 cells (human CCR8 [3]) [RLU] | also measured |
| --- | --- | --- | --- | --- | --- | --- | --- | --- | --- | --- | --- |
| B1 | – | – | – | – | – | – | – | – | – | – | IC50, blocking of CCL1 induced cell migration (human CCR8 [1]): 2.95 nM |
| B2 | 0.0113 | 36.4 | 0.0598 | 0.744 | 0.043 | 0.495 | 4.96e+06 | 5.28e+06 | 2.28e+06 | 4.19e+06 | – |
| B3 | 0.0139 | 52.5 | 0.0586 | 0.402 | 0.0391 | 0.586 | 4.71e+06 | 4.07e+06 | 2.03e+06 | 3.89e+06 | EC50 (human CCR8 [4]): 0.315 nM; EC50, ADCC reporter, 158F CD16a/NFAT-Jurkat, target TALL-1 cells (human CCR8 [5]): 0.12 nM; EC50, ADCC reporter, 158V CD16a/NFAT-Jurkat, target TALL-1 cells (human CCR8 [5]): 0.0658 nM; EC50, ADCC with human PBMCs (LDH release), target TALL-1 cells (human CCR8 [6]): 0.0121 nM |
| B4 | – | – | – | – | – | – | – | – | – | – | EC50 (cynomolgus CCR8): 0.0826 nM; Max MFI (cynomolgus CCR8): 4.15e+06 MFI; IC50, inhibition of CCL1 induced β-Arrestin recruitment (human CCR8 [7]): 0.61 nM; Max Inhibition (%), CCL1 induced β-Arrestin recruitment (human CCR8 [7]): 88.8%; EC50 (human CCR8 [8]): 0.0722 nM; Max MFI (human CCR8 [8]): 694000 MFI; Max MFI (human CCR8 [9]): 351000 MFI; IC50 (human CCR8 [10]): 0.0614 nM; Max Inhibition (%) (human CCR8 [10]): 101% |
| B5 | – | – | – | – | – | – | – | – | – | – | IC50, inhibition of CCL1 induced β-Arrestin recruitment (human CCR8 [11]): 860 nM |
